Assay results as given in PMC12717039, “Novel mutations in the RECQL4 gene affect its helicase functions, interactions with the BLM helicase and chemotherapeutics-induced cell death”.
Residue numbers refer to the chain shown, from its start.

Columns and labels:
RECQL4 427-1116 P532S = target: T1, RECQL4 427-1116 P532S (Homo sapiens, UniProt O94761 427-1116, P532S); assay: MST; 5 mM Mg2+; no ATP mentioned; Kd only in figure; Buffer D: 10 mM HEPES pH 7.5, 50 mM NaCl, 5 mM MgCl2, 2 mM DTT (EMSA, 100 nM Cy3-DNA, 6% native PAGE); MST with 10 nM Cy5-DNA, buffer not restated; temperature; conditions: protein: recombinant; tags: GST tag removed by TEV; label: 5' Cy5 on strand 1; 3' overhang 15 nt on strand 1, 15 bp duplex
T1 sequence: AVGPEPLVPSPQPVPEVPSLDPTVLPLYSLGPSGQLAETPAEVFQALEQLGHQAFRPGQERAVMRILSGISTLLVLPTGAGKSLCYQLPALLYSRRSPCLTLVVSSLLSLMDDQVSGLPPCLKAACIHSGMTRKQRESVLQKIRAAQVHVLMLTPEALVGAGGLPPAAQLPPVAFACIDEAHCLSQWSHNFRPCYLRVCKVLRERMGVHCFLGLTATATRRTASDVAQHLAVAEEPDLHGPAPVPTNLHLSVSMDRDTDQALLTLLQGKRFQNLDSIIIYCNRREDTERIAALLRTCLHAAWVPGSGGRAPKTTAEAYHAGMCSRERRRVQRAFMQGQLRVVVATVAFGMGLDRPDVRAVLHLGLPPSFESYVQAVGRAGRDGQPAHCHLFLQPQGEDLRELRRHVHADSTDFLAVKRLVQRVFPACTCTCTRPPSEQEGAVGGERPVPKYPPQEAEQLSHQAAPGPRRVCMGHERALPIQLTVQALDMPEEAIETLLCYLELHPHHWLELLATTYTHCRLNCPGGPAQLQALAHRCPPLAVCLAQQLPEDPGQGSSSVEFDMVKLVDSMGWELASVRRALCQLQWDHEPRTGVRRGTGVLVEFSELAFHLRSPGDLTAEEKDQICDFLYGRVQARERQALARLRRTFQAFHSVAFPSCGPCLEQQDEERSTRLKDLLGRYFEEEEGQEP

RECQL4 427-1116 WT = target: T2, RECQL4 427-1116 WT (Homo sapiens, UniProt O94761 427-1116); assay: as above; conditions: protein: recombinant; tags: GST tag removed by TEV; label: 5' Cy5 on strand 1; 3' overhang 15 nt on strand 1, 15 bp duplex
T2 sequence: T1 sequence with S106P

B1: OH-Cy5/CQ dsDNA with 3' ss overhang (MST) (dsDNA)
DNA 1: CCATTCCACCCTCTATTTTTTTTTTTTTTT
DNA 2: TAGAGGGTGGAATGG
B1: binds (RECQL4 427-1116 P532S); binds (RECQL4 427-1116 WT).
